For assay [1], the target named is T1, kDR5ECDdelHis (human).
T1 construct: DR5ECDdelHis in which the DR5 signal peptide (aa 1-57) is replaced by that of Kappa 2F8; C-terminal His tag; also called soluble recombinant extracellular domain of human DR5; human recombinant DR5
T1 chain: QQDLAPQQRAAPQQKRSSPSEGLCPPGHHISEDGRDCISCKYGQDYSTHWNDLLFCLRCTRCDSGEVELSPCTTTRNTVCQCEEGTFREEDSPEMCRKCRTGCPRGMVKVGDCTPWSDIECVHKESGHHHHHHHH
Nature of the assay: Bio-Layer Interferometry (Octet HTX), antibody on AHC biosensor, kDR5ECDdelHis in solution, n = 2.

The target of assay [2] is DR5sh79-115ECDdel-FcRbHisCtag (human, with aa 79-115 replaced by the …). Nature of the assay: ELISA, DR5 fusion protein captured by penta-his antibody.
The target of assay [3] is T2, Cyno DR5Mfdel-K420N (cynomolgus monkey DR5 with deletion of aa 185-213 and K420N), expressed on CHO-S cells (cynomolgus monkey).
T2 construct: includes the signal peptide; also called CHO-S cells expressing cynomolgus monkey DR5
T2 chain: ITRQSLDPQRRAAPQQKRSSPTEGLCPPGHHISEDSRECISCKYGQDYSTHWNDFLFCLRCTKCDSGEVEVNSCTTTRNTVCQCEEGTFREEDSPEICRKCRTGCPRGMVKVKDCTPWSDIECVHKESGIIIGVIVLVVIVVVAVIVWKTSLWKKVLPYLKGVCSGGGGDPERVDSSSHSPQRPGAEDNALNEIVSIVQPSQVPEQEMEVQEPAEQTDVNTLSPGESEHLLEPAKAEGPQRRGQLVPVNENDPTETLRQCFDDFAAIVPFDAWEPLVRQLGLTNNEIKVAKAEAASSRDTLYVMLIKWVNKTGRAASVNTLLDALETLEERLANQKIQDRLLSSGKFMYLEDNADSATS
Nature of the assay: flow cytometry on CHO-S cells expressing cynomolgus monkey DR5, average n = 4 (SD). (In general: A flow cytometer gives signals particle by particle.)

In assay [4] the target is T1, kDR5ECDdelHis. Nature of the assay: Bio-Layer Interferometry (Octet HTX), antibody on AHC biosensor, kDR5ECDdelHis in solution, n = 3. (In general: BLI is a label-free optical method that tracks binding on a fibre tip over time.)
For assay [5], the target named is T3, DR5ECD-FcRbHisCtag (human).
T3 construct: also called fully human DR5 antigen; extracellular domain of human DR5 natural variant P32L
Nature of the assay: ELISA, DR5 fusion protein captured on a penta-His antibody coat, detection with HRP goat anti-human IgG F(ab')2, OD 405 nm. Background: An ELISA detects its analyte on a solid surface through an enzyme-linked reagent.

For assay [6], the target named is T4, DR5sh139-166ECDdel-FcRbHisCtag (human, with aa 139-166 replaced by the …).
T4 chain: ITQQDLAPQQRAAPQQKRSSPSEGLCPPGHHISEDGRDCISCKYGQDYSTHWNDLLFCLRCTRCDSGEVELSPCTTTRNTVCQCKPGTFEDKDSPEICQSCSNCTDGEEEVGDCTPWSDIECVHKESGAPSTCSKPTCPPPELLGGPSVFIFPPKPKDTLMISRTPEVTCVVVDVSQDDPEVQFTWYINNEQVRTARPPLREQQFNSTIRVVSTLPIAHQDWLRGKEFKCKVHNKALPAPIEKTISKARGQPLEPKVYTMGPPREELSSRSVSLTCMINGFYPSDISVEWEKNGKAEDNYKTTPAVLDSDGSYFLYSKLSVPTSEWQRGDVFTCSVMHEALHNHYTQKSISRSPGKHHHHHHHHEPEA
Described as above.

Assay [7] concerns the target T5, Murine DR5 (mouse, UniProt Q9QZM4 53-381, limits assumed).
T5 construct: also called mouse DR5; Murine DRS (Uniprot Q9QZM4)
Nature of the assay: flow cytometry (FIG. 3D).

Values joined by “and” are separate entries in the source; they are usually repeats but may differ in a detail not shown here. Equal entries are not always repeated.

T5 sequence (Q9QZM4 53-381 limits assumed): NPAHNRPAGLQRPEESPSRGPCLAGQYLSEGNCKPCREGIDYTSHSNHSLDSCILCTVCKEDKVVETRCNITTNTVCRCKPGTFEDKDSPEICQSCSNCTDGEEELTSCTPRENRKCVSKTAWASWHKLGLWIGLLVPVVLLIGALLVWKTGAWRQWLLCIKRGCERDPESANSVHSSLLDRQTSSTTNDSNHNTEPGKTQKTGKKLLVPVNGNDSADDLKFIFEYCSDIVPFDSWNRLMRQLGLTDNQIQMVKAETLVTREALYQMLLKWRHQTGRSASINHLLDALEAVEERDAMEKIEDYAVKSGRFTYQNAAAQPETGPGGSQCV

B1: IgG1-hDR5-05 (antibody)
heavy: not shown
light: DIQLTQSPSSLSASVGDRVTITCSASSSVSYMYWYQQKPGKAPKPWIYRTSNLASGVPSRFSGSGSGTDFTLTISSLQPEDFATYYCQQYHSYPPTFGGGTKVEIKRTVAAPSVFIFPPSDEQLKSGTASVVCLLNNFYPREAKVQWKVDNALQSGNSQESVTEQDSKDSTYSLSSTLTLSKADYEKHKVYACEVTHQGLSSPVTKSFNRGEC
notes: Humanized IgG1,kappa without the E430G mutation; also called WT counterpart of IgG1-hDR5-05-E430G
The term Kd denotes the free concentration of one partner at which half of the binding sites on the other are occupied at equilibrium, for simple one-to-one binding. The molecule B1 displayed a Kd in assay [1] of 28.5 nM.

B2: IgG1-hDR5-05-E430G (antibody)
heavy: not shown
light: DIQLTQSPSSLSASVGDRVTITCSASSSVSYMYWYQQKPGKAPKPWIYRTSNLASGVPSRFSGSGSGTDFTLTISSLQPEDFATYYCQQYHSYPPTFGGGTKVEIKRTVAAPSVFIFPPSDEQLKSGTASVVCLLNNFYPREAKVQWKVDNALQSGNSQESVTEQDSKDSTYSLSSTLTLSKADYEKHKVYACEVTHQGLSSPVTKSFNRGEC
notes: Humanized IgG1,kappa with E430G (Eu numbering); also called IgG1-DR5-05-E430G; HC hDR5-05-E430G / LC hDR5-05
A word on the EC50: it is the concentration that produces a half-maximal response. As usually defined, the EC50 (read off the curve) is the concentration that produces a half-maximal response. B2: the binding result in assay [2] is recorded as “no binding (tested: range 0.46-1,000 ng/mL)”. In assay [3], the EC50 is 0.17 µg/mL and 1.16 nM. This molecule registered a dissociation constant (Kd) in assay [4] of 27.1 nM. The “EC50 (read off the curve)” value in assay [5] and in assay [6] was around 20 ng/mL each time.

B3: IgG1-hDR5-05-F405L (antibody)
heavy: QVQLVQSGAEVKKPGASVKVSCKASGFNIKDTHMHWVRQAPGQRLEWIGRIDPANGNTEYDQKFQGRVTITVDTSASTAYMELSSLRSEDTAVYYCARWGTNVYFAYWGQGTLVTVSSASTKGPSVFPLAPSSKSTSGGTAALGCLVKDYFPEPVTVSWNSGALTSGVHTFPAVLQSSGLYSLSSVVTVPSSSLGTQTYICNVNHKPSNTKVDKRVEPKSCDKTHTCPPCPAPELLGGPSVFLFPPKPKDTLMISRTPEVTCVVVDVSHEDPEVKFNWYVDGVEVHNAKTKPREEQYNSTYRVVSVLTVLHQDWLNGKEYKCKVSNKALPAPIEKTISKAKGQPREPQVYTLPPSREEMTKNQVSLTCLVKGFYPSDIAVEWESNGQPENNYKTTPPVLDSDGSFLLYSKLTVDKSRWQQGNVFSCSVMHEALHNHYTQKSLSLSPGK
light: DIQLTQSPSSLSASVGDRVTITCSASSSVSYMYWYQQKPGKAPKPWIYRTSNLASGVPSRFSGSGSGTDFTLTISSLQPEDFATYYCQQYHSYPPTFGGGTKVEIKRTVAAPSVFIFPPSDEQLKSGTASVVCLLNNFYPREAKVQWKVDNALQSGNSQESVTEQDSKDSTYSLSSTLTLSKADYEKHKVYACEVTHQGLSSPVTKSFNRGEC
notes: Humanized IgG1,kappa with F405L; also called HC hDR5-05-F405L / LC hDR5-05
Consider B3, for which the binding result in assay [7] was “no binding”.

(Values after patent publication US20220315661A1 (Genmab, published 2022).)
